For one substance, hydrolyzing rate of the product results are on record in US5804555.

For this assay, the target named is commercially available lactoferrin (manufactured by Oleofina Company, Belgium) just as isolated from cow's milk (bovine (cow's milk)) (UniProt P24627).

“commercially available swine pepsin (1:10000; manufactured by Wako Jun-yaku Co., Ltd.) (from UniProt P00791) (enzyme)” gave a hydrolyzing rate of the product of 11.3%.
